# Laboratory results reported in US7056679 (ANTYRA, dated 2006).
# T1: DGI-2 polypeptide (UniProt Q15004 1-111, limits assumed)
# T1 construct: Soluble recombinant protein coated at 500 ng/well; vector tag of pIVEX2.3-MCS not described for this construct; also called KIAA0101
# T1 sequence (looked up): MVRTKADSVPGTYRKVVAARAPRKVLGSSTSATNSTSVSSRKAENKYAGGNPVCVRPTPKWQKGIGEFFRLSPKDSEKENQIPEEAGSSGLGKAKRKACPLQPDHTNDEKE
# Molecular target: T2, lactate dehydrogenase (LDH)
# T2 construct: Coated at 500 ng/well as non-specific target; also called LDH polypeptide
# Experiment: phage ELISA
# Procedure: (§1) For analysis of individual target binders, colonies were picked and phage prepared as described above using helper phage, M13KO7. Ninety-six-well microtiter plates were coated with 500 ng/well of specific target protein, 500 ng/well lactate dehydrogenase (LDH) irrelevant or non-specific target, 500 ng/well of positive control antibody raised against ETAG, and negative control of non-fat milk powder-PBS 2% at 4° C. overnight. Plates were then blocked with 350 microliters/well PBS containing 2% non-fat milk for 1 hr at room temperature. One hundred microliters per well of phage from isolated clones were added and plates were incubated at room temperature for 2 hr after centrifuging samples for 20 minutes at 3500 rpm at 4° C. The phage solution was then removed, and the wells were washed three times with PBS at room temperature. Antibody raised against M13 conjugated to horseradish peroxidase (Pharmacia) was diluted 1:3000 in PBS-Tween and added to each well (100 µl/well). Incubation was for 1 hr at room temperature, followed by washing with PBS-(0.5%) Tween 3 times as described. Color was developed by addition of ABTS solution (100 µl/well; Boehringer, Indianapolis, Ind.). Plates were analyzed at 405 nm. A clone was considered "positive" if the $A405$ of the well was $\geq$2-fold over background.
row,Binder,LDH (OD)
1,VSGVPDGSMRAAQLASGYWCAAAGAPVPYPDPLEPRP [DGI-2-20F-PP-G2],1.1
2,FGSTAYADMLSQFRKFAMNISAAAGAPVPYPDPLEPRP [DGI-2-20F-PP-E1],1
3,RDHRYVGWGRATFRHDQSVWAAAGAPVPYPDPLEPRP [DGI-2-20F-PP-H1],1.2
4,VGQSSGDARPLANLFVFPFVAAAGAPVPYPDPLEPRP [DGI-2-20F-PP-F12],0.9
5,VQSGRDLGGLLRGGTGTEASPAAAGAPVPYPDPLEPRP [DGI-2-20F-PP-D3],0.9
6,PVYRVAMCRISVGCSAGAWFAAAGAPVPYPDPLEPRP [DGI-2-20F-PP-C12],0.9
7,TPVAISIPAGVCSTSVCGRDAAAGAPVPYPDPLEPRP [DGI-2-20F-PP-C11],0.9
8,GGDLGEQGVQLCPDVVRGGSLAAAGAPVPYPDPLEPRP [DGI-2-20F-PP-A7],0.9
9,RRFVRCSVPVALRSAVPVSVAAAGAPVPYPDPLEPRP [DGI-2-20F-PP-A10],1
10,SRGMAEAQFSAWPVLAVFPLAAAGAPVPYPDPLEPRP [DGI-2-20F-PP-H8],0.9
11,SVSGGGVFGTGGRVRHQVSGAAAGAPVPYPDPLEPRP [DGI-2-20F-PP-C5],0.9
12,RISVGQCGTSRCGGGRRGGGAAAGAPVPYPDPLEPRP [DGI-2-20F-PP-D1],1.1
13,GSTRLRVTVRFCSETGTPGCAAAGAPVPYPDPLEPRP [DGI-2-20F-PP-G6],1.1
14,DRHRAFVAEGLDGFRHSTGVAAAGAPVPYPDPLEPRP [DGI-2-20F-PP-D4],1.1
15,GASRVVDVGWRFWGKLWQRSAAAGAPVPYPDPLEPRP [DGI-2-20F-PP-G5],1.2
16,MGADTCMGGKMPFDQMFGAVAAAGAPVPYPDPLEPRP [DGI-2-20F-PP-E10],1.2
17,FGRDGDGIQRRQGGFSWVGDRAAAGAPVPYPDPLEPRP [DGI-2-20F-PP-E2],0.7

# Molecular target: T1, DGI-2 polypeptide
# Experiment: phage ELISA
# Procedure: as §1
Binder,DGI-2 (OD),DGI-2/LDH [ratio]
VSGVPDGSMRAAQLASGYWCAAAGAPVPYPDPLEPRP [DGI-2-20F-PP-G2],2.4,2.1
FGSTAYADMLSQFRKFAMNISAAAGAPVPYPDPLEPRP [DGI-2-20F-PP-E1],1.8,1.9
RDHRYVGWGRATFRHDQSVWAAAGAPVPYPDPLEPRP [DGI-2-20F-PP-H1],1.7,1.4
VGQSSGDARPLANLFVFPFVAAAGAPVPYPDPLEPRP [DGI-2-20F-PP-F12],2.1,2.3
VQSGRDLGGLLRGGTGTEASPAAAGAPVPYPDPLEPRP [DGI-2-20F-PP-D3],2.2,2.4
PVYRVAMCRISVGCSAGAWFAAAGAPVPYPDPLEPRP [DGI-2-20F-PP-C12],2.5,2.9
TPVAISIPAGVCSTSVCGRDAAAGAPVPYPDPLEPRP [DGI-2-20F-PP-C11],2.4,2.6
GGDLGEQGVQLCPDVVRGGSLAAAGAPVPYPDPLEPRP [DGI-2-20F-PP-A7],2.6,2.8
RRFVRCSVPVALRSAVPVSVAAAGAPVPYPDPLEPRP [DGI-2-20F-PP-A10],2.4,2.4
SRGMAEAQFSAWPVLAVFPLAAAGAPVPYPDPLEPRP [DGI-2-20F-PP-H8],1.6,1.9
SVSGGGVFGTGGRVRHQVSGAAAGAPVPYPDPLEPRP [DGI-2-20F-PP-C5],2.2,2.4
RISVGQCGTSRCGGGRRGGGAAAGAPVPYPDPLEPRP [DGI-2-20F-PP-D1],2,1.9
GSTRLRVTVRFCSETGTPGCAAAGAPVPYPDPLEPRP [DGI-2-20F-PP-G6],2.7,2.5
DRHRAFVAEGLDGFRHSTGVAAAGAPVPYPDPLEPRP [DGI-2-20F-PP-D4],2.6,2.3
GASRVVDVGWRFWGKLWQRSAAAGAPVPYPDPLEPRP [DGI-2-20F-PP-G5],2.4,2
MGADTCMGGKMPFDQMFGAVAAAGAPVPYPDPLEPRP [DGI-2-20F-PP-E10],2,1.7
FGRDGDGIQRRQGGFSWVGDRAAAGAPVPYPDPLEPRP [DGI-2-20F-PP-E2],1.7,2.4

# Molecular target: T3, antibody raised against ETAG
# T3 construct: Coated at 500 ng/well; also called E-tag antibody
# Experiment: phage ELISA
# Procedure: as §1
row,Binder,ETAG (OD)
1,VSGVPDGSMRAAQLASGYWCAAAGAPVPYPDPLEPRP [DGI-2-20F-PP-G2],5.6
2,FGSTAYADMLSQFRKFAMNISAAAGAPVPYPDPLEPRP [DGI-2-20F-PP-E1],33.4
3,RDHRYVGWGRATFRHDQSVWAAAGAPVPYPDPLEPRP [DGI-2-20F-PP-H1],1.4
4,VGQSSGDARPLANLFVFPFVAAAGAPVPYPDPLEPRP [DGI-2-20F-PP-F12],47.6
5,VQSGRDLGGLLRGGTGTEASPAAAGAPVPYPDPLEPRP [DGI-2-20F-PP-D3],15
6,PVYRVAMCRISVGCSAGAWFAAAGAPVPYPDPLEPRP [DGI-2-20F-PP-C12],36.4
7,TPVAISIPAGVCSTSVCGRDAAAGAPVPYPDPLEPRP [DGI-2-20F-PP-C11],3.2
8,GGDLGEQGVQLCPDVVRGGSLAAAGAPVPYPDPLEPRP [DGI-2-20F-PP-A7],42.2
9,RRFVRCSVPVALRSAVPVSVAAAGAPVPYPDPLEPRP [DGI-2-20F-PP-A10],16.3
10,SRGMAEAQFSAWPVLAVFPLAAAGAPVPYPDPLEPRP [DGI-2-20F-PP-H8],32.4
11,SVSGGGVFGTGGRVRHQVSGAAAGAPVPYPDPLEPRP [DGI-2-20F-PP-C5],33.9
12,RISVGQCGTSRCGGGRRGGGAAAGAPVPYPDPLEPRP [DGI-2-20F-PP-D1],3
13,GSTRLRVTVRFCSETGTPGCAAAGAPVPYPDPLEPRP [DGI-2-20F-PP-G6],36.1
14,DRHRAFVAEGLDGFRHSTGVAAAGAPVPYPDPLEPRP [DGI-2-20F-PP-D4],44
15,GASRVVDVGWRFWGKLWQRSAAAGAPVPYPDPLEPRP [DGI-2-20F-PP-G5],27.7
16,MGADTCMGGKMPFDQMFGAVAAAGAPVPYPDPLEPRP [DGI-2-20F-PP-E10],44.6
17,FGRDGDGIQRRQGGFSWVGDRAAAGAPVPYPDPLEPRP [DGI-2-20F-PP-E2],11.6
